# Test results: patent US20170174769A1 (Regeneron, published 2017)
# Several values for one entry are separate records, joined by “and”; a condition that tells them apart may be missing. Equal entries are not always repeated. Where two headings read alike, the source gives them in different places.
# T1: recombinant cynomolgus monkey FGF21 with an N-terminal hexahistidine tag (cynomolgus monkey)
# T1 construct: also called His6-MfFGF21; mfFGF21
# T1 chain: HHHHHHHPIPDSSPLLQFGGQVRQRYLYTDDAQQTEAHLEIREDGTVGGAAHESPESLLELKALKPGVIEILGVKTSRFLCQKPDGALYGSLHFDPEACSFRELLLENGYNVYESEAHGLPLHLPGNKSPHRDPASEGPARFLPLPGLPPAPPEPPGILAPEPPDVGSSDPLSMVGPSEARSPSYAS
# T2: biotinylated human FGF21 expressed with a N-terminal hexahistidine tag (human, UniProt Q9NSA1 29-209, biotinylated (site not stated))
# T2 construct: also called biotin-6His-hFGF21; biotin 6His-hFGF21
# T2 sequence: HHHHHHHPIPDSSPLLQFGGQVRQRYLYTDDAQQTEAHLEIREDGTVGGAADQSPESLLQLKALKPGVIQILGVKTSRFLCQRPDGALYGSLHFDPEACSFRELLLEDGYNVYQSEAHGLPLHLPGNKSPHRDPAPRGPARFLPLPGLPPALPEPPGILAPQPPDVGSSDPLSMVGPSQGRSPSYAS
# T3: mouse FGF21 (mouse, UniProt Q9JJN1 29-210)
# T3 construct: also called mFGF21 (Prospec, # CYT-339)
# T3 sequence (looked up): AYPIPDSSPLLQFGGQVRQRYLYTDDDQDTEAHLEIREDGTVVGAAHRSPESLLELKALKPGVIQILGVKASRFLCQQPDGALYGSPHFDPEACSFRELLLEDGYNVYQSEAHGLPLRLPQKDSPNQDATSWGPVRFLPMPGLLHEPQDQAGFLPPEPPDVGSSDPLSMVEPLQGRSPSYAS
# T4: rat FGF21 (rat, UniProt A0A7U3JW68 29-208)
# T4 sequence: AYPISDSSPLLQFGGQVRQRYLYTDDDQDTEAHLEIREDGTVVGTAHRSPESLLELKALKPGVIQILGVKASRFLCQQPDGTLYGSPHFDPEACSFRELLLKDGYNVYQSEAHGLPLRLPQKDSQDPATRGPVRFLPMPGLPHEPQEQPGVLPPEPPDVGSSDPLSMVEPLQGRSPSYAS
# B1: H2M6504N (antibody, V domains shown)
# VH: EVHLVESGGGLVQPGRSLRLSCVASGFTFDDYAMHWVRQVPGKGLEWVSVITWNSGSIGYADSVKGRFTISRDNAKNSLFLQVSSLRAEDTALYYCAKGISPTGTTPDYWGQGTLVTVSS
# VL: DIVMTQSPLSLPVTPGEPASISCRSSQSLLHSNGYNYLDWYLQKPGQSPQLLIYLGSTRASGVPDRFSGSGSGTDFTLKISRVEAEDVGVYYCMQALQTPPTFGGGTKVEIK
# notes: mouse IgG2 Fc (H2M prefix); also called H2aM6504N
# B2: H4H6504N (antibody, V domains shown)
# VH: B1 VH
# VL: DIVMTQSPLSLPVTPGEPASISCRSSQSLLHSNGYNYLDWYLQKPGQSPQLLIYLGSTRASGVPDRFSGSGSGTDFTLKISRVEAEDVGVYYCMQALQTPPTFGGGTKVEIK
# notes: 6504N variable domains on human IgG4 Fc (H4H prefix)
# B3: recombinant human FGF21 expressed with an N-terminal hexahistidine tag (ligand)
# chain: T2 sequence
# B4: H4H6915P (antibody, V domains shown)
# VH: QVQLVESGGGVVQPGRSLRLSCAASGFTFSSYVMHWVRQAPGKGLEWVSVISYDGGNKYYADSVKGRFTISRDNSKNTLDLQMNSLRAEDTAVYYCAKEDDYIWGGFFDLWGRGTLVTVSS
# VL: DIQMTQSPSSLSASVGDRVTITCRASQGIRNDLGWYQKKPGKAPKRLISAAYSLQSGVTSRFSGSGSGTEFTLTISSLQPEDFATYYCLQHNSYPWTFGQGTKVEIK
# notes: human IgG4 Fc (H4H prefix)
# B5: H2M6499N (antibody, V domains shown)
# VH: QVHLVQSGAEVKKPGASVKVSCKASGYSFTDYYVHWVRQAPGQGLEWMGWFNPKSGDTNSVQKFQGRVSMTGDTSITTAYLDLRRLTSDDTAVYYCGRSGYFDFWGQGTLVTVSS
# VL: DVVMTQSPLSLSVTLGQPASISCRSSQSLVFSDGNTFLNWFQQRPGQSPRRLIYNLSNRDSGVPDRFSGSGSGTDFTLKISGVEAEDVGVYYCMQGTHWPLTFGGGTKVEIK
# notes: human variable domains, mouse IgG2 Fc (H2M prefix); also called H2aM6499N
# B6: H4H6879P (antibody, V domains shown)
# VH: QVQLQESGPGLVKPSETLSLTCTVSGGSISGYYWSWIRQPPGKGLEWIGYFYNSGSTNYNPSLKSRVTMSVDTSKNQFSLRLTSVTAADTAVYYCTRERELLYFDYWGQGTLVTVSS
# VL: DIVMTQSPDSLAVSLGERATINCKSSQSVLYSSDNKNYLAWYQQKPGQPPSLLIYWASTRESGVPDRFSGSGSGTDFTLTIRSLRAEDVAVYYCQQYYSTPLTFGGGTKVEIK
# notes: human IgG4 Fc (H4H prefix)
# B7: H2M6509N (antibody, V domains shown)
# VH: EVQLVESGGGLVKPGGSLRLSCAASGFTFSNAWMSWVRQAPGKGLDWVGRIKNKLDGGTTDYAAPVKGRFTISRDDSKNTLYLQMNSLKTEDTAVYYCTTDHGWNYYYGMDVWGQGTTVTVSS
# VL: DIQMTQSPSSLSASVGDRVTITCRASQDISNYLAWFQHKPGKAPKSLIYAASSLQGGVPSKFSGSGSGTDFTLTISSLQPEDFATYYCQQYNTYPPTFGAGTKVEIK
# notes: mouse IgG2 Fc (H2M prefix); also called H2aM6509N
# How the values were obtained:
# [1] = molecular target: B3; assay: cell-based or functional assay
# [2] = molecular target: B3; assay: SPR Biacore 4000, mAb captured, 25 C
# Procedure: (§1) Antibodies were captured on a goat anti-mouse IgG polyclonal antibody (GE Healthcare, BR-1008-38) surface created through direct amine coupling of the anti-IgG antibodies to a Biacore CM5 sensor chip. Kinetic experiments were carried out using HBS-EP (10 mM HEPES, 150mM NaCl, 3 mM EDTA, 0.05% Surfactant P20, pH 7.4) as both the running buffer and the sample buffer. […] Antibody-antigen association was monitored for 180 seconds while dissociation in buffer was monitored for 300 seconds. Kinetic association (kₐ) and dissociation (kd) rate constants were determined by processing and fitting the data using Scrubber software version 2.0c. Binding dissociation equilibrium constants (KD) and dissociative half-lives (t_{1/2}) were calculated from the kinetic rate constants as: KD =kd/kₐ and t112 =In(2)/kd.
# [3] = molecular target: T1, recombinant cynomolgus monkey FGF21 …; assay: SPR Biacore 4000, mAb captured, 25 C
# Procedure: as §1
# [4] = molecular target: B3; assay: SPR Biacore 4000, mAb captured, 37 C
# Procedure: as §1
# [5] = molecular target: T1, recombinant cynomolgus monkey FGF21 …; assay: SPR Biacore 4000, mAb captured, 37 C
# Procedure: as §1
# [6] = molecular target: T2, biotinylated human FGF21 expressed with …; assay: competition ELISA: mAb blocks 300 pM biotin-6His-hFGF21 binding to coated hKLB-10his
# Procedure: The ability of anti-FGF21 antibodies to block human FGF21 binding to a cognate binding partner human klotho beta was evaluated with an ELISA-based immunoassay. Briefly, human klotho beta (hKLB-10his; R&D systems, #5889-KB-050) was coated at 2μg/mL on a 96-well plate in PBS buffer overnight at 4° C. […] The equilibrated sample solutions were then transferred to hKLB-10his-coated plates. […] Samples were developed with a TMB solution to produce a colorimetric reaction and then neutralized with 1M sulfuric acid before measuring absorbance at 450 nm on a Victor plate reader. Data analysis was performed using a sigmoidal dose-response model within Prism™ software (GraphPad).
# The absorbance values of the wells containing the highest concentration for each antibody were used to determine the percent maximum blockade.
# mouse FGF21 = molecular target: T3, mouse FGF21; assay: not described
# rat FGF21 = molecular target: T4, rat FGF21; assay: not described
# [7] = molecular target: T5, human KLB and human FGFR1c co-expressed on HEK293/hKLB/hFGFR1c/SRE-luc cells (human, UniProt Q86Z14 1-1044; P11362 22-822); assay: cell-based or functional assay
# [8] = molecular target: mouse KLB and mouse FGFR1c co-expressed on HEK293/mKLB/mFGFR1c/SRE-Luc cells (mouse); assay: cell-based or functional assay
# [9] = molecular target: T5, human KLB and human FGFR1c co-expressed …; assay: cell-based or functional assay; remark: listed apart in the source
# [10] = molecular target: T5, human KLB and human FGFR1c co-expressed …; assay: cell-based or functional assay; remark: listed apart in the source
# [11] = molecular target: T6, cell-surface human FGFR1c (amino acids 1-731 of NP_075594) with cell-surface human KLB on … (human, UniProt P11362 22-822); assay: cell-based or functional assay
# [12] = molecular target: T6, cell-surface human FGFR1c (amino acids …); assay: cell-based or functional assay; remark: listed apart in the source
# T5 sequence (Q86Z14 whole entry, chain 1 of 2): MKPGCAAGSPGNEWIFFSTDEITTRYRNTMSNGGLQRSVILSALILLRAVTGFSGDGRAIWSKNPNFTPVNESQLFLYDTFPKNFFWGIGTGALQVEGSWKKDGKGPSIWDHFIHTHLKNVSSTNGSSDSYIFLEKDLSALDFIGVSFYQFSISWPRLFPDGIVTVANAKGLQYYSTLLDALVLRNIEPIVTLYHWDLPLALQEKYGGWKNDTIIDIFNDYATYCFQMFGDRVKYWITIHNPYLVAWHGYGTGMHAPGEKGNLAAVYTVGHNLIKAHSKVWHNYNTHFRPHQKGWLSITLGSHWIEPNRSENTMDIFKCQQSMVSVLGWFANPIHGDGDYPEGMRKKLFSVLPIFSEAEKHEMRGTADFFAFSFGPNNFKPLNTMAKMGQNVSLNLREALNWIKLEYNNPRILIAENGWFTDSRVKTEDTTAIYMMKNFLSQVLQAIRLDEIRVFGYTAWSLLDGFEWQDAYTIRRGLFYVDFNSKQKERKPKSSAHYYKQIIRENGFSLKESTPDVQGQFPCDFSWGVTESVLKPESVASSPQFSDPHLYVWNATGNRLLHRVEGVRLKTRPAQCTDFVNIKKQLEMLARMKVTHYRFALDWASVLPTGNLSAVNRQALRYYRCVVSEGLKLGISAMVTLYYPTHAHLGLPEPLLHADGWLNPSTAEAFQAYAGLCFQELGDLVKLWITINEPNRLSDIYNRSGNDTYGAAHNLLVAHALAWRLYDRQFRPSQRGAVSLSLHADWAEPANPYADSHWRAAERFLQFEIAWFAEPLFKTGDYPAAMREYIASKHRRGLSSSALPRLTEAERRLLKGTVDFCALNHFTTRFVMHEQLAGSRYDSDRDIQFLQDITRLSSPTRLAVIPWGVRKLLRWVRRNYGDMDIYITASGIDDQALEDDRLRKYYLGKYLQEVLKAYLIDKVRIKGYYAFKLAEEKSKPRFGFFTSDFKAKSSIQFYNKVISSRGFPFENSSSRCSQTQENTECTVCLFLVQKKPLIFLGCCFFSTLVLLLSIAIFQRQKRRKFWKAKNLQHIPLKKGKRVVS
# T5 sequence (P11362 other isoform, or with tags, fused parts or gaps limits assumed, chain 2 of 2): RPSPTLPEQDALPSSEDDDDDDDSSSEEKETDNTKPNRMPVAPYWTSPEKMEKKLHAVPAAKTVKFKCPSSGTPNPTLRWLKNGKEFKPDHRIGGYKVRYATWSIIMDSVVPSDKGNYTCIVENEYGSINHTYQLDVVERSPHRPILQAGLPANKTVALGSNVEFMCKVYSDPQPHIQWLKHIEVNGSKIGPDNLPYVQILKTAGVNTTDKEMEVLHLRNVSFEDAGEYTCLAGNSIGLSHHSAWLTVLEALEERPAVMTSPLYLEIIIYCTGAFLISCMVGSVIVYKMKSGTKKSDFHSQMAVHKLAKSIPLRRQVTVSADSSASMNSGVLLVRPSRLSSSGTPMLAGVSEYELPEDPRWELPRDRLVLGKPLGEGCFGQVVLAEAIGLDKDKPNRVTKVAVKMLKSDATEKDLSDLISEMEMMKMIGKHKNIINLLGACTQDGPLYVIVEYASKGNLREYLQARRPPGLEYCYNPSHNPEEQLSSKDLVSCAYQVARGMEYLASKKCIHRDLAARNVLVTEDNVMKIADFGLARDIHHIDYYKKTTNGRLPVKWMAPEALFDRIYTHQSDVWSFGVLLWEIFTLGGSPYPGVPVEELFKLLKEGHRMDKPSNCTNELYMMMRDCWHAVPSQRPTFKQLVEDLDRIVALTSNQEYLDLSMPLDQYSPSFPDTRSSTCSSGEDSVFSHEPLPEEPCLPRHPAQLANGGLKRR
# T6 sequence (P11362 22-822, chain 1 of 2): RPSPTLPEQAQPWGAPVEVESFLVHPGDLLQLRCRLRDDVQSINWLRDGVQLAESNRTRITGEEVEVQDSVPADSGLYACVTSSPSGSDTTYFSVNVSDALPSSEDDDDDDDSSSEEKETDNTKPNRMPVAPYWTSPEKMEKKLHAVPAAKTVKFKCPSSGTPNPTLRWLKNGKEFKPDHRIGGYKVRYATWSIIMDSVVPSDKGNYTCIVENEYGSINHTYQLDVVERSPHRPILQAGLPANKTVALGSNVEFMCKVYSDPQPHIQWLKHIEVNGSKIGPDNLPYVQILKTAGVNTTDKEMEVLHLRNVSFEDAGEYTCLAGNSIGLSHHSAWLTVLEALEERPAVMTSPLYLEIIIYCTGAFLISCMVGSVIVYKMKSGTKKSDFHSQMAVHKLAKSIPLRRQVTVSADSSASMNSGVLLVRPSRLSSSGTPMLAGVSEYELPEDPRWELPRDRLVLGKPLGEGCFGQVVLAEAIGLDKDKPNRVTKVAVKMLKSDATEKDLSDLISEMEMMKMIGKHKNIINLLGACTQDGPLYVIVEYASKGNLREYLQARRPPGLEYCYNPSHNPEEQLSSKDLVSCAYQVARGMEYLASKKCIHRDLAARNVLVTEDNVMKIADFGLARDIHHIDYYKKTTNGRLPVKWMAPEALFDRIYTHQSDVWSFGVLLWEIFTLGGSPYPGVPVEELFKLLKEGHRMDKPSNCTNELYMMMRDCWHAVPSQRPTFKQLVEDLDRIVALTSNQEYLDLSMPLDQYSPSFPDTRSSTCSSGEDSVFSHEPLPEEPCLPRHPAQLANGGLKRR
# T6 sequence (chain, as listed by the source, chain 2 of 2): as the sequence (Q86Z14 whole entry, chain 1 of 2) above
"IC50, inhibition of 1 nM FGF21 activation of 293/hKLB/FGFR1c/SRE-Luc cells [1]",Kd [2],koff [2],kon [2],t1/2 [2],Kd [3],koff [3],kon [3],t1/2 [3],Kd [4],koff [4],kon [4],t1/2 [4],Kd [5],koff [5],kon [5],t1/2 [5],% Blocking at 100 nM Antibody Concentration [6],binding result (mouse FGF21),binding result (rat FGF21),Binder,further results
1 nM,2.3 nM,0.00197 s⁻¹,860000 M⁻¹ s⁻¹,5.9 min,37.2 nM,0.0237 s⁻¹,640000 M⁻¹ s⁻¹,0.5 min,4.4 nM,0.00549 s⁻¹,1.25e+06 M⁻¹ s⁻¹,2.1 min,64 nM,0.053 s⁻¹,820000 M⁻¹ s⁻¹,0.2 min,64%,–,–,B1,–
–,–,–,–,–,–,–,–,–,–,–,–,–,–,–,–,–,–,no binding,no binding,B2,–
–,–,–,–,–,–,–,–,–,–,–,–,–,–,–,–,–,–,–,–,B3,"EC50, SRE-luc activation by ligand [7]: 1.9 nM; EC50, SRE-luc activation [8]: 0.41 nM; EC50, SRE-luc activation by ligand [9]: 0.73 nM and 1.4 nM; EC50, SRE-luc activation by ligand [10]: 2.4 nM and 2.2 nM; % Activation [11]: 100%; EC50, SRE-luc activation [11]: 1.1 nM; % Activation [12]: 100%; EC50, SRE-luc activation [12]: 1.4 nM"
0.5 nM,–,–,–,–,–,–,–,–,–,–,–,–,–,–,–,–,8%,no binding,no binding,B4,–
11 nM,19.2 nM,0.00669 s⁻¹,349000 M⁻¹ s⁻¹,1.7 min,23.2 nM,0.00578 s⁻¹,250000 M⁻¹ s⁻¹,2 min,41.1 nM,0.0212 s⁻¹,516000 M⁻¹ s⁻¹,0.5 min,46.5 nM,0.015 s⁻¹,323000 M⁻¹ s⁻¹,0.8 min,98%,–,–,B5,IC50 [6]: 0.076 nM
1.3 nM,–,–,–,–,–,–,–,–,–,–,–,–,–,–,–,–,34%,no binding,no binding,B6,IC50 [6]: > 100 nM
9.1 nM,26.6 nM,0.00297 s⁻¹,111000 M⁻¹ s⁻¹,3.9 min,47.6 nM,0.00316 s⁻¹,66000 M⁻¹ s⁻¹,3.7 min,58.9 nM,0.0139 s⁻¹,236000 M⁻¹ s⁻¹,0.8 min,109 nM,0.0142 s⁻¹,130000 M⁻¹ s⁻¹,0.8 min,31%,–,–,B7,IC50 [6]: > 100 nM
